Drawing on patent CN112010973A (SHANDONG BOAN BIOTECHNOLOGY CO LTD, dated 2020), this text covers Kd, koff and kon for one molecule.

In this test the target is T1, 4-1BB蛋白(义翘神州，10041-H08H) (human, UniProt Q07011 24-186).
T1 construct: bought reagent; also called 4-1BB-His蛋白; 4-1BB protein
As to the kind of experiment: SPR, BIAcore X100; antibody captured by anti-human IgG Fc on CM5, 4-1BB protein as analyte, 1:1 model. On the technique in general: Surface plasmon resonance follows binding to a sensor surface in real time, without labels.

B1: Urelumab (antibody, human IgG4 S228P, kappa, V domains shown)
VH: QVQLQQWGAGLLKPSETLSLTCAVYGGSFSGYYWSWIRQSPEKGLEWIGEINHGGYVTYNPSLESRVTISVDTSKNQFSLKLSSVTAADTAVYYCARDYGPGNYDWYFDLWGRGTLVTVSS
VL: EIVLTQSPATLSLSPGERATLSCRASQSVSSYLAWYQQKPGQAPRLLIYDASNRATGIPARFSGSGSGTDFTLTISSLEPEDFAVYYCQQRSNWPPALTFGGGTKVEIKR
notes: Second positive control antibody, expressed in HEK293 in the same way as Utomilumab
In general, Kd refers to a measure of binding affinity in units of concentration. What is called koff is the rate constant with which the complex falls apart. Higher therefore signals a short-lived complex. The kon is a measure of how fast the partners come together. A higher kon goes with faster complex formation. Molecule B1 had an equilibrium dissociation constant (Kd) of 4.87 nM, a koff of 0.00251 s⁻¹ and an on-rate constant (kon) of 516000 M⁻¹ s⁻¹.
